Data taken from paper PMC6509359 (Molecular Cell, 2019).

Assays:
[1] = target: the molecule itself; assay: cell-based or functional assay
[2] = target: the molecule itself; assay: not stated; oligomeric state of the purified deletion construct, Figure S4F (legend not shown)
[3] = target: the molecule itself; assay: SAXS; SEC-SAXS, 45 μL at 3-12 mg/mL, Shodex KW-403, buffer E (20 mM Tris pH 8.0, 100 mM NaCl, 5 mM DTT); compared with curves calculated from the crystal structures
[4] = target: the molecule itself; assay: native gel or EMSA; native PAGE of lysate of untreated HEK293 cells, immunoblotting for the endogenous protein; recombinant USP25 tetramer and dimer fractions as size standard

B1: Human USP25 (157-Δ(465-535)-714) (domain or fragment)
chain: NPYDRKRQDKAPVGLKNVGNTCWFSAVIQSLFNLLEFRRLVLNYKPPSNAQDLPRNQKEHRNLPFMRELRYLFALLVGTKRKYVDPSRAVEILKDAFKSNDSQQQDVSEFTHKLLDWLEDAFQMKAEEETDEEKPKNPMVELFYGRFLAVGVLEGKKFENTEMFGQYPLQVNGFKDLHECLEAAMIEGEIESLHSENSGKSGQEHWFTELPPVLTFELSRFEFNQALGRPEKIHNKLEFPQVLYLDRYMHRNREITRIKREEIKRLKDYLTVLQQRLERYLSYGSGPKRFPLVDVLQYALEFASSKPVGSGSGSAPRHITEEELSVLESCLHRWRTEIENDTRDLQESISRIHRTIELMYSDKSMIQVPYRLHAVLVHEGQANAGHYWAYIFDHRESRWMKYNDIAVTKSSWEELVRDSFGGYRNASAYCLMYINDKAQFLIQEEFNKETGQPLVGIETLPPDLRDFVEEDNQRFEKELEEWDAQLAQKALQE
notes: USP25, human, residues 536-714; source: E. coli Rosetta2(DE3)pLacI, purified (HisTrap, 3C protease, Resource Q, size exclusion)
For B1, the “Ub-KG-TAMRA cleavage activity against the tetrameric wild-type USP25 (157-714)” value [1] was 6 fold and the “stoichiometry N” value [2] was 2.

B2: Human USP28 (149-703) (domain or fragment, UniProt Q96RU2 149-703, looked up)
chain: PNPNDWRRVDGWPVGLKNVGNTCWFSAVIQSLFQLPEFRRLVLSYSLPQNVLENCRSHTEKRNIMFMQELQYLFALMMGSNRKFVDPSAALDLLKGAFRSSEEQQQDVSEFTHKLLDWLEDAFQLAVNVNSPRNKSENPMVQLFYGTFLTEGVREGKPFCNNETFGQYPLQVNGYRNLDECLEGAMVEGDVELLPSDHSVKYGQERWFTKLPPVLTFELSRFEFNQSLGQPEKIHNKLEFPQIIYMDRYMYRSKELIRNKRECIRKLKEEIKILQQKLERYVKYGSGPARFPLPDMLKYVIEFASTKPASESCPPESDTHMTLPLSSVHCSVSDQTSKESTSTESSSQDVESTFSSPEDSLPKSKPLTSSRSSMEMPSQPAPRTVTDEEINFVKTCLQRWRSEIEQDIQDLKTCIASTTQTIEQMYCDPLLRQVPYRLHAVLVHEGQANAGHYWAYIYNQPRQSWLKYNDISVTESSWEEVERDSYGGLRNVSAYCLMYINDKLPYFNAEAAPTESDQMSEVEALSVELKHYIQEDNWRFEQEVEEWEEEQSCKI
notes: also called USP28 catalytic domain; source: E. coli Rosetta2(DE3)pLacI, purified (HisTrap, 3C protease, Resource Q, size exclusion)
With B2 the “stoichiometry N” value [3] was 2.

B3: endogenous USP28 (enzyme, human (endogenous in HEK293), UniProt Q96RU2 1-1077, looked up)
chain: MTAELQQDDAAGAADGHGSSCQMLLNQLREITGIQDPSFLHEALKASNGDITQAVSLLTDERVKEPSQDTVATEPSEVEGSAANKEVLAKVIDLTHDNKDDLQAAIALSLLESPKIQADGRDLNRMHEATSAETKRSKRKRCEVWGENPNPNDWRRVDGWPVGLKNVGNTCWFSAVIQSLFQLPEFRRLVLSYSLPQNVLENCRSHTEKRNIMFMQELQYLFALMMGSNRKFVDPSAALDLLKGAFRSSEEQQQDVSEFTHKLLDWLEDAFQLAVNVNSPRNKSENPMVQLFYGTFLTEGVREGKPFCNNETFGQYPLQVNGYRNLDECLEGAMVEGDVELLPSDHSVKYGQERWFTKLPPVLTFELSRFEFNQSLGQPEKIHNKLEFPQIIYMDRYMYRSKELIRNKRECIRKLKEEIKILQQKLERYVKYGSGPARFPLPDMLKYVIEFASTKPASESCPPESDTHMTLPLSSVHCSVSDQTSKESTSTESSSQDVESTFSSPEDSLPKSKPLTSSRSSMEMPSQPAPRTVTDEEINFVKTCLQRWRSEIEQDIQDLKTCIASTTQTIEQMYCDPLLRQVPYRLHAVLVHEGQANAGHYWAYIYNQPRQSWLKYNDISVTESSWEEVERDSYGGLRNVSAYCLMYINDKLPYFNAEAAPTESDQMSEVEALSVELKHYIQEDNWRFEQEVEEWEEEQSCKIPQMESSTNSSSQDYSTSQEPSVASSHGVRCLSSEHAVIVKEQTAQAIANTARAYEKSGVEAALSEVMLSPAMQGVILAIAKARQTFDRDGSEAGLIKAFHEEYSRLYQLAKETPTSHSDPRLQHVLVYFFQNEAPKRVVERTLLEQFADKNLSYDERSISIMKVAQAKLKEIGPDDMNMEEYKKWHEDYSLFRKVSVYLLTGLELYQKGKYQEALSYLVYAYQSNAALLMKGPRRGVKESVIALYRRKCLLELNAKAASLFETNDDHSVTEGINVMNELIIPCIHLIINNDISKDDLDAIEVMRNHWCSYLGQDIAENLQLCLGEFLPRLLDPSAEIIVLKEPPTIRPNSPYDLCSRFAAVMESIQGVSTVTVK
notes: USP28, endogenous in untreated HEK293 cells; source: endogenous, HEK293 lysate
With B3 the “stoichiometry N” value [4] was 2.
